{"source": "patent US20050064392A1", "about": "(TRUSTEES OF THE UNIVERSITY OF PENNYLVANIA, published 2005)", "binders": {"B1": {"name": "HIV-2/VCP gp120 (other)", "chain": "KQFVTVFYGIPAWRNASIPLFCATKNRDTWGTIQCLPDNDDYQEIALNVTEAFDAWNNTVTEQAVEDVWNLFETSIKPCVKLTPLCVAMNCTRNMTTSTGTTDTQNITIINDTSPCVRADNCTGLKEEEMVDCQFNMTGLERDKRKQYTEAWYSKDVICDNNTSSRSKCYMNHCNTSVITESCDKHYWDAMRFRYCAPPGFALLRCNDTNYSGFAPNCSKVVAATCTRMMETQSSTWFGFNGTRAENRTYIYWHGKNNRTIISLNNFYNLTMHCKRPGNKTVLPIMSGFKFHSKPVINKKPRQAWCWFKGEWKEAMQEVKETLAKHPRYKGNRSRTENIKFKAPGRGSDPEAAYMWTNCRGEFLYCNMTWFLNWVDNRTGQKQRNYAPCHIRQIINTWHRVGKNVYLPPREGELTCNSTVTSIIANIDTGDQTDITFSAEVAELYRLELGDYKLVEITPIGFAPTSVKRYSSAHQRHTR", "notes": "also called gp120 Env of HIV-2/VCP"}}, "biological_target": "T1, CXCR4 (UniProt P61073 1-352)", "T1 construct": "whole, on cells; also called X4", "T1 sequence (P61073 whole entry)": "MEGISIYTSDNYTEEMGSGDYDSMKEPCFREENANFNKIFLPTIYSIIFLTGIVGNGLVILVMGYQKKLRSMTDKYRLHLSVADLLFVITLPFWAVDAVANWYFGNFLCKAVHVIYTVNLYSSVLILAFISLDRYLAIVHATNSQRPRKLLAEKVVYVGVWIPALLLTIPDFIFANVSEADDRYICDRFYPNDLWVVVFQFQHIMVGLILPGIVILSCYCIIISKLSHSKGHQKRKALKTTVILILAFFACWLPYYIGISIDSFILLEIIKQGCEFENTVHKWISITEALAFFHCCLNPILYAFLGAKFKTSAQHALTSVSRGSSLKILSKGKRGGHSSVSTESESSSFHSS", "assay": "western blot binding assay on CXCR4-transfected cells", "data": [{"binder": "B1", "values": [{"measurement": "binding result", "value": "binds"}]}]}
